Primed or numbered codes have the meaning given here. No end group written: not given here. *: point of attachment. fluorescein″ = fluorescein label attached to the peptide N-terminus; Biotin = O=C1N[C@H]2[C@H](CS[C@H]2CCCCC(=O)*)N1
B1: TRβ ligand binding domain (receptor, UniProt P10828 202-461, looked up)
chain: EELQKSIGHKPEPTDEEWELIKTVTEAHVATNAQGSHWKQKRKFLPEDIGQAPIVNAPEGGKVDLEAFSHFTKIITPAITRVVDFAKKLPMFCELPCEDQIILLKGCCMEIMSLRAAVRYDPESETLTLNGEMAVTRGQLKNGGLGVVSDAIFDLGMSLSSFNLDDTEVALLQAVLLMSSDRPGLACVERIEKYQDSFLLAFEHYINYRKHHVTHFWPKLLMKVTDLRMIGACHASRFLHMKVECPTELFPPLFLEVFED
notes: also called Thyroid Receptor LBD; TRβ LBD
B2: SRC-1 peptide (amino acids 676-700) (peptide)
peptide: Biotin-CPSSHSSLTERHKILHRLLQEGSPS
modifications: also: fluorescent label in polarization assay, not given here
notes: also called SRC-1 (LCD2) 676-700; SRC peptide
B3: GAL4-NcoR (2239-2300) (other)
chain: MKLLSSIEQACDICRLKKLKCSKEKPKCAKCLKNNWECRYSPKTKRSPLTRAHLTEVESRLERLEQLFLLIFPREDLDMILKMDSLQDIKALLTGLFVQDNVNKDAVTDRLASVETDMPLTLRQHRISATSSSEESSNKGQRQLTVSPAVTTSGSVSSRGHSFADPASNLGLEDIIRKALMGSFDDKVEDHGVVMSQPMGVVPGTANTS
notes: range 1-147;range 2239-2300; also called GAL4-NCoR 2239 to 2300
B5: VP16-human PPARγ2 (full length) (other)
chain: LSTAPPTDVSLGDELHLDGEDVAMAHADALDDFDLDMLGDGDSPGPGFTPHDSAPYGALDMADFEFEQMFTDALGIDEYGGMGETLGDSPIDPESDSFTDTLSANISQEMTMVDTEMPFWPTNFGISSVDLSVMEDHSHSFDIKPFTTVDFSSISTPHYEDIPFTRTDPVVADYKYDLKLQEYQSAIKVEPASPPYYSEKTQLYNKPHEEPSNSLMAIECRVCGDKASGFHYGVHACEGCKGFFRRTIRLKLIYDRCDLNCRIHKKSRNKCQYCRFQKCLAVGMSHNAIRFGRMPQAEKEKLLAEISSDIDQLNPESADLRALAKHLYDSYIKSFPLTKAKARAILTGKTTDKSPFVIYDMNSLMMGEDKIKFKHITPLQEQSKEVAIRIFQGCQFRSVEAVQEITEYAKSIPGFVNLDLNDQVTLLKYGVHEIIYTMLASLMNKDGVLISEGQGFMTREFLKSLRKPFGDFMEPKFEFAVKFNALELDDSDLAIFIAVIILSGDRPGLLNVKPIEDIQDNLLQALELQLKLNHPESSQLFAKLLQKMTDLRQIVTEHVQLLQVIKKTETDMSLHPLLQEIYKDLY

Columns and labels:
[1] = target: Fluoroscein-SMRT ID-C peptide; test: fluorescence polarization
[2] = target: Fluoroscein-NCOR ID-C peptide (NCoR amino acids 2251-2275); test: fluorescence polarization
[3] = target: Fluoroscein-SMRT ID-C peptide; test: fluorescence polarization, 10 nM fluorescein peptide, LBD titrated, no ligand
[4] = target: Fluoroscein-NCOR ID-C peptide (NCoR amino acids 2251-2275); test: as above
[5] = target: T1, Fluoroscein-NCOR ID-C peptide (NCoR amino acids 2251-2275) (N-terminal fluorescein); test: fluorescence polarization, with agonist ligand T3
T1 construct: also called NCOR peptide; NCoR 2251-2275
T1 peptide: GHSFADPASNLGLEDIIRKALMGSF

[6] = target: B2; test: fluorescence polarization, with agonist ligand T3
[7] = target: T1, Fluoroscein-NCOR ID-C peptide (NCoR …); test: fluorescence polarization, no ligand
[8] = target: B1; test: fluorescence polarization, apparent affinity, no ligand
[9] = target: T2, VP16-human PPARα (full length) (human, UniProt P06492 410-490; Q07869 1-468); test: mammalian two-hybrid in CV-1 cells
T2 construct: also called VP16 full length PPARα

[10] = target: B5; test: mammalian two-hybrid in CV-1 cells
[11] = target: T3, biotin-NCOR ID-C peptide (NCoR amino acids 2251-2275) (N-terminal biotin); test: time-resolved FRET (ratio 665 nm/620 nm), biotinylated NCOR (2251-2275) peptide on europium streptavidin with APC-labeled LXRα LBD, test compound at 2 µM; normalized to % inhibition or activation
T3 construct: also called NCOR-derived co-repressor peptide
T3 peptide: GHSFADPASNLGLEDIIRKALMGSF

[12] = target: T4, RXRα ligand binding domain (amino acids 225-462) (UniProt P19793 225-462); test: fluorescence polarization, 10 nM fluorescein peptide, LBD titrated, no ligand
T4 construct: range 225-462; Biotinylated for FRET; also called RXRα LBD; not shown: His-tag
T4 sequence (looked up): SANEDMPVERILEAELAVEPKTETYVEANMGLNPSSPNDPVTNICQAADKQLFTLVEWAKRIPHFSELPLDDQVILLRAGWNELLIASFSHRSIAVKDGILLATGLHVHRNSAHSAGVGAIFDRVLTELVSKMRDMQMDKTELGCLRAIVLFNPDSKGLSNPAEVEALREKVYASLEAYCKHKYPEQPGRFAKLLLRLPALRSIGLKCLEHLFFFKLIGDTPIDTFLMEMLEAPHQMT

[13] = target: B1; test: as above
[14] = target: T5, human PPARδ ligand binding domain (amino acids 139-441) (human, UniProt Q03181 139-441, Biotinylated (site not stated) in the FRET assays; unlabelled in fluorescence polarization and SPR.); test: as above
T5 construct: placed at the N-terminus here; Biotinylated for FRET; also called PPARδ LBD
T5 sequence: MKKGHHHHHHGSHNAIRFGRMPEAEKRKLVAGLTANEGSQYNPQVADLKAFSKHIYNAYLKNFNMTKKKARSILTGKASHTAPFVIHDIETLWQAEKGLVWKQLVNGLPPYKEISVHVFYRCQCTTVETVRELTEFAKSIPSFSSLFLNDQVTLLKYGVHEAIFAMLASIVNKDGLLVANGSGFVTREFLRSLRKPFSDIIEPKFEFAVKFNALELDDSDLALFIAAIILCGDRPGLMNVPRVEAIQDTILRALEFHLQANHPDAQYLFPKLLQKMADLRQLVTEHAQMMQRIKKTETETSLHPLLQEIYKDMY

[15] = target: T6, ERβ ligand binding domain (amino acids 257-530) (UniProt Q92731 257-530); test: as above
T6 construct: range 257-530; not shown: His-tag
T6 sequence (Q92731 257-530 limits assumed): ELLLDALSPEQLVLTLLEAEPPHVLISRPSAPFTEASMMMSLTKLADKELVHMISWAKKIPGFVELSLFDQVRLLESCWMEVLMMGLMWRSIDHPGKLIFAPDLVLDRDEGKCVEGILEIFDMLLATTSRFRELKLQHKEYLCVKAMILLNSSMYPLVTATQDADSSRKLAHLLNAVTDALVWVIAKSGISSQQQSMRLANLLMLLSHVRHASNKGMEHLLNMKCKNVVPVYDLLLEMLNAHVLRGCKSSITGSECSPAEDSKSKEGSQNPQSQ

[16] = target: T7, RARα ligand binding domain (amino acids 146-432) (UniProt P10276 146-432); test: as above
T7 construct: range 146-432; not shown: His-tag
T7 sequence (looked up): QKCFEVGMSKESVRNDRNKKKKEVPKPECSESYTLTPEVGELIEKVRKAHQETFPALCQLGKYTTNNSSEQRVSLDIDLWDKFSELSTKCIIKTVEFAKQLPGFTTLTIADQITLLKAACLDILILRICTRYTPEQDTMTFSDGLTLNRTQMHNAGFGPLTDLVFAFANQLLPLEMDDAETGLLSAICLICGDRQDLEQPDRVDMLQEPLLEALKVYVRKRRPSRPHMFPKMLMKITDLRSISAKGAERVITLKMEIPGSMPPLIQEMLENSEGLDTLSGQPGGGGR

[17] = target: T8, human PPARγ ligand binding domain (amino acids 206-477) (human, UniProt P37231-2 206-477); test: as above
T8 construct: range 206-477; placed at the N-terminus here; Biotinylated for FRET; also called PPARγ LBD
T8 sequence: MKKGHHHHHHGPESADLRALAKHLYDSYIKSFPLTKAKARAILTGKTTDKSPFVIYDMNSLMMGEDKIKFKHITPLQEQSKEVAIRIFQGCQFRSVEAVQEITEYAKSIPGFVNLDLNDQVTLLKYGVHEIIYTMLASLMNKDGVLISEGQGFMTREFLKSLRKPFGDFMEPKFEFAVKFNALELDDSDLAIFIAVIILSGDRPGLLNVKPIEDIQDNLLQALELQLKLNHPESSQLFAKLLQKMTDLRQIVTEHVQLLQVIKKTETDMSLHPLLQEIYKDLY

[18] = target: T9, human PPARα ligand binding domain (amino acids 192-468) (human, UniProt Q07869 192-468); test: as above
T9 construct: range 192-468; placed at the N-terminus here; Biotinylated for FRET; also called PPARα LBD
T9 sequence: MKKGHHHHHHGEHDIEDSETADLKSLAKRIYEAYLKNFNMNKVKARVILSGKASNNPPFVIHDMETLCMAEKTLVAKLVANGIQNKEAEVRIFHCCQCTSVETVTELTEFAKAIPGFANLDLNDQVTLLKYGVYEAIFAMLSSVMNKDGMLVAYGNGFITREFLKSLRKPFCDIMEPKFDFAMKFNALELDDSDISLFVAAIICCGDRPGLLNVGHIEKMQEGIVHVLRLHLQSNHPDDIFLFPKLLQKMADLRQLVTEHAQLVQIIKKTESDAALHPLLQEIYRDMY

[19] = target: B3; test: cell-based or functional assay
[20] = target: GAL4-CBP (1-115) (UniProt P04386 1-147; P45481 1-115); test: cell-based or functional assay

RXRαΔAF2 ligand binding domain (amino acids 225-446) (from UniProt P19793 225-446) (receptor)
fold greater affinity against RXRα ligand binding domain [1]: 100 fold | fold greater affinity against RXRα ligand binding domain [2]: 100 fold | Kd [3]: 0.25 µM | Kd [4]: 0.39 µM

B1
fold decrease in affinity with T3 against no ligand [5]: 9 fold | fold greater affinity against the co-repressor peptide (NCoR ID-C) [6]: 48 fold | fold increase in affinity with T3 against no ligand [6]: 50 fold | fold greater affinity against the coactivator peptide (SRC-1) [7]: 10 fold

B2
Kd [8]: 7.1 µM

B3
binding result [9]: binds | binding result [10]: binds

B4: LXR alpha LBD (receptor, not shown: small tags and cut ends)
chain: EEEQAHATSLPPRASSPPQILPQLSPEQLGMIEKLVAAQQQCNRRSFSDRLRVTPWPMAPDPHSREARQQRFAHFTELAIVSVQEIVDFAKQLPGFLQLSREDQIALLKTSAIEVMLLETSRRYNPGSESITFLKDFSYNREDFAKAGLQVEFINPIFEFSRAMNELQLNDAEFALLIAISIFSADRPNVQDQLQVERLQHTYVEALHAYVSIHHPHDRLMFPRMLMKLVSLRTLSSVHSEQVFALRLQDKKLPPLLSEIWDVHE
modifications: Biotinylated and bound to streptavidin-APC in the assay; His-tag not written
notes: also called LXRα
binding result [11]: binds

{fluorescein″}-TNMGLEAIIFKALMGKYDQWEE [Fluoroscein-SMRT ID-C peptide]
Kd [12]: 20 µM | Kd [13]: 0.74 µM | Kd [14]: 7.7 µM | Kd [15]: 30 µM | Kd [16]: 2.1 µM | Kd [17]: 1.8 µM | Kd [18]: 6.1 µM

B5
mammalian two-hybrid reporter, fold dissociation with GW1929 and GW7845 [19]: ~3 fold | mammalian two-hybrid reporter, fold association with GW1929 and GW7845 [20]: ~3 fold

Source: patent US20050227220A1, “Compositions and Methods for Evaluating and Designing Nuclear Receptor Ligands that Modulate Co-Regulator Affinity” (priority 2002, published 2005)
